In this experiment the target is GAL4-HSF2N96C238 (HSF2 deletion mutant fused with the yeast GAL4-BD derived from pM) (yeast; human) (UniProt P04386). In words: cell-based or functional assay.

“VP16-HSF2BP (HSF2BP fused with the VP16 transcriptional activation domain derived from pVP16) (from UniProt O75031 1-334)” returned a luciferase reporter activity in two-hybrid assay in K562 cells (induction fold against control VP16) of 11 fold.

Values taken from patent US6485936.
